Assay results: PMC7367873, “Dissecting the sequence determinants for dephosphorylation by the catalytic subunits of phosphatases PP1 and PP2A” (Nature Communications, 2020)

B1: QARS (protein, UniProt P47897 2-775, looked up)
Glutamine--tRNA ligase: AALDSLSLFTSLGLSEQKARETLKNSALSAQLREAATQAQQTLGSTIDKATGILLYGLASRLRDTRRLSFLVSYIASKKIHTEPQLSAALEYVRSHPLDPIDTVDFERECGVGVIVTPEQIEEAVEAAINRHRPQLLVERYHFNMGLLMGEARAVLKWADGKMIKNEVDMQVLHLLGPKLEADLEKKFKVAKARLEETDRRTAKDVVENGETADQTLSLMEQLRGEALKFHKPGENYKTPGYVVTPHTMNLLKQHLEITGGQVRTRFPPEPNGILHIGHAKAINFNFGYAKANNGICFLRFDDTNPEKEEAKFFTAICDMVAWLGYTPYKVTYASDYFDQLYAWAVELIRRGLAYVCHQRGEELKGHNTLPSPWRDRPMEESLLLFEAMRKGKFSEGEATLRMKLVMEDGKMDPVAYRVKYTPHHRTGDKWCIYPTYDYTHCLCDSIEHITHSLCTKEFQARRSSYFWLCNALDVYCPVQWEYGRLNLHYAVVSKRKILQLVATGAVRDWDDPRLFTLTALRRRGFPPEAINNFCARVGVTVAQTTMEPHLLEACVRDVLNDTAPRAMAVLESLRVIITNFPAAKSLDIQVPNFPADETKGFHQVPFAPIVFIERTDFKEEPEPGFKRLAWGQPVGLRHTGYVIELQHVVKGPSGCVESLEVTCRRADAGEKPKAFIHWVSQPLMCEVRLYERLFQHKNPEDPTEVPGGFLSDLNLASLHVVDAALVDCSVALAKPFDKFQFERLGYFSVDPDSHQGKLVFNRTVTLKEDPGKV
B2: MRE11A (protein, UniProt P49959 2-708, looked up)
Double-strand break repair …: STADALDDENTFKILVATDIHLGFMEKDAVRGNDTFVTLDEILRLAQENEVDFILLGGDLFHENKPSRKTLHTCLELLRKYCMGDRPVQFEILSDQSVNFGFSKFPWVNYQDGNLNISIPVFSIHGNHDDPTGADALCALDILSCAGFVNHFGRSMSVEKIDISPVLLQKGSTKIALYGLGSIPDERLYRMFVNKKVTMLRPKEDENSWFNLFVIHQNRSKHGSTNFIPEQFLDDFIDLVIWGHEHECKIAPTKNEQQLFYISQPGSSVVTSLSPGEAVKKHVGLLRIKGRKMNMHKIPLHTVRQFFMEDIVLANHPDIFNPDNPKVTQAIQSFCLEKIEEMLENAERERLGNSHQPEKPLVRLRVDYSGGFEPFSVLRFSQKFVDRVANPKDIIHFFRHREQKEKTGEEINFGKLITKPSEGTTLRVEDLVKQYFQTAEKNVQLSLLTERGMGEAVQEFVDKEEKDAIEELVKYQLEKTQRFLKERHIDALEDKIDEEVRRFRETRQKNTNEEDDEVREAMTRARALRSQSEESASAFSADDLMSIDLAEQMANDSDDSISAATNKGRGRGRGRRGGRGQNSASRGGSQRGRADTGLETSTRSRNSKTAVSASRNMSIIDAFKSTRQQPSRNVTTKNYSEVIEVDESDVEEDIFPTTSKTDQRWSSTSSSKIMSQSQVSKGVDFESSEDDDDDPFMNTSSLRRNRR

Legend:
[1] = tested on: GFP-14-3-3β and its binding proteins; experiment: GFP-14-3-3β co-IP with LC-MS/MS label-free quantification, untreated versus PP1c-treated; parameters: species or system human; conditions: pairwise comparison PP1 vs untreated
GFP-14-3-3β = GFP-14-3-3β co-IP with LC-MS/MS, untreated GFP-14-3-3β versus GFP control (14-3-3 interactome); assay type: binding, human; conditions: pairwise comparison untreated vs GFP

| Molecule | Difference (log2), PP1 vs untreated [1] [log2] | Difference (log2), untreated vs GFP (GFP-14-3-3β) [log2] |
| --- | --- | --- |
| B1 | 0.1821 | 0.6541 |
| B2 | 0.1784 | -0.2958 |
